Literature values, collected in paper PMC7062049.

Molecular target: HP1β CSD (Mus musculus) (UniProt P83917)

- Kd: 150 nM
Substance: HP1β CSD (from UniProt P83917)
